Publication PMC3222294

Target: T1, RIG-I (ΔCARDs) (human, UniProt O95786 230-925, del1-229)
T1 sequence: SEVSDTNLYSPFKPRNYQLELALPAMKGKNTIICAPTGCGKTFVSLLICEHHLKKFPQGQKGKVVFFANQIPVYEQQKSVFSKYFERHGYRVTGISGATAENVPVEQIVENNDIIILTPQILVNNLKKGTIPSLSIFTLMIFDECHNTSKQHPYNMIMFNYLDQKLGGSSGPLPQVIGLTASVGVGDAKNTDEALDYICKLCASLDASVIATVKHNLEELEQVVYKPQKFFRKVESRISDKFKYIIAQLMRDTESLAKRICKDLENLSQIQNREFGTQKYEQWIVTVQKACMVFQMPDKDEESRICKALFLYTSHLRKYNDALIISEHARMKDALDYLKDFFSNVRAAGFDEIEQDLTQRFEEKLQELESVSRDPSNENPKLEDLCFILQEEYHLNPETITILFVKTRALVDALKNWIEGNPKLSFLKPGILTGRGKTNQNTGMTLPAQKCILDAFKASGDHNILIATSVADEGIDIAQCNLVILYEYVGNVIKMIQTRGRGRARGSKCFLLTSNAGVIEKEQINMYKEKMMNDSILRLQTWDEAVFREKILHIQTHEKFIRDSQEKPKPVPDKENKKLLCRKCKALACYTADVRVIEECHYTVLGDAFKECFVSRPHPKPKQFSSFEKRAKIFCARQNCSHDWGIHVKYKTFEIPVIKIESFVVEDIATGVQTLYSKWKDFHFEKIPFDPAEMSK
Assay: X-ray crystallography

B1: dsRNA10 (5'OH palindromic 10-mer duplex) (dsRNA)
RNA 1: GCGCGCGCGC
RNA 2: GCGCGCGCGC
- binding result: binds
